Target: SARS-COV-2 Wuhan WT Spike_del18 on VSV-delG pseudotyped particles (SARS-COV-2) (UniProt P0DTC2)
Test: cell-based or functional assay

Row | Substance | IC50 ug/ml, pseudoneutralization assay [µg/mL]
1 | pX-B001_GS-VHH72-h1-E1D-S56A_(G4S)6_VHH72-h1-E1D-S56A_His8 | 0.169
2 | pX-B003_GS-VHH72-h1-E1D-S56A_(G4S)4_VHH72-h1-E1D-S56A_His8 | 0.361
3 | pX-B002_GS-VHH72-h1-E1D-S56A_(G4S)_VHH72-h1-E1D-S56A_His8 | 0.108

Source: patent US20240228596A1
